Assay results: patent US20190352359A1 (IMMATICS BIOTECHNOLOGIES, published 2019)

Key:
HLA-A*24 [1] = target: T1, HLA-A*24; assay: UV peptide-exchange ELISA (anti-b2m); yield grade + = >10%
T1 construct: Monomers captured on streptavidin plates; also called peptide-receptive MHC molecules; MHC complexes
Description: (§1) Candidate peptides for T cell based therapies according to the present invention were further tested for their MHC binding capacity (affinity). The individual peptide-MHC complexes were produced by UV-ligand exchange, where a UV-sensitive peptide is cleaved upon UV-irradiation, and exchanged with the peptide of interest as analyzed. Only peptide candidates that can effectively bind and stabilize the peptide-receptive MHC molecules prevent dissociation of the MHC complexes. To determine the yield of the exchange reaction, an ELISA was performed based on the detection of the light chain (p2m) of stabilized MHC complexes. The assay was performed as generally described in Rodenko et al. (Rodenko et al., 2006)
(§2) 96 well MAXISorp plates (NUNC) were coated over night with 2 ug/ml streptavidin in PBS at room temperature, washed 4× and blocked for 1 h at 37° C. in 2% BSA containing blocking buffer. Refolded HLA-A*02:01/MLA-001 monomers served as standards, covering the range of 15-500 ng/ml. Peptide-MHC monomers of the UV-exchange reaction were diluted 100-fold in blocking buffer. Samples were incubated for 1 h at 37° C., washed four times, incubated with 2 ug/ml HRP conjugated anti-β2m for 1h at 37° C., washed again and detected with TMB solution that is stopped with […]. Absorption was measured at 450 nm. Candidate peptides that show a high exchange yield (preferably higher than 50%, most preferred higher than 75%) are generally preferred for a generation and production of antibodies or fragments thereof, and/or T cell receptors or fragments thereof, as they show sufficient avidity to the MHC molecules and prevent dissociation of the MHC complexes.

HLA-A*24 [2] = target: T1, HLA-A*24; assay: UV peptide-exchange ELISA (anti-b2m); yield grade +++ = >50
Description: as §1, §2

Binder | peptide exchange yield (HLA-A*24 [1]) [%] | peptide exchange yield (HLA-A*24 [2]) [%]
MFQEMLQRL (also called MFQEMLQRL) [TRIML2-001] | 10 to 20 | 
FYPDEDDFYF (also called FYPDEDDFYF) [MYCN-002] |  | 50 to 75
RYLIIKYPF (also called RYLIIKYPF) [SUCN-003] |  | 50 to 75
MDQNQVVWTF (also called MDQNQVVWTF) [ROS-008] |  | 50 to 75
MSYSCGLPSL (also called MSYSCGLPSL) [KRT33A-001] |  | 50 to 75
SYVLQIVAI (also called SYVLQIVAI) [PTP-041] |  | 50 to 75
SYIVDGKII (also called SYIVDGKII) [PSG9-001] | 10 to 20 | 
NAFEAPLTF (also called NAFEAPLTF) [BRCA2-004] |  | 50 to 75
LSCTATPLF (also called LSCTATPLF) [KHDC1L-001] |  | 50 to 75
VLAPVSGQF (also called VLAPVSGQF) [FCRL5-009] |  | 50 to 75
TYFFVANKY (also called TYFFVANKY) [MMP1-011] | 10 to 20 | 
KVVSGFYYI (also called KVVSGFYYI) [CCR8-003] | 10 to 20 | 
DIYVTGGHLF (also called DIYVTGGHLF) [KLHDC7B-005] |  | 50 to 75
KYKNPYGF (also called KYKNPYGF) [MMP20-001] | 10 to 20 | 
KQMQEFFGL (also called KQMQEFFGL) [MMP1-010] |  | 50 to 75
QFYSTLPNTI (also called QFYSTLPNTI) [ROS-009] | 10 to 20 | 
KDLMKAYLF (also called KDLMKAYLF) [TXNDC16-006] |  | 50 to 75
QYPEFSIEL (also called QYPEFSIEL) [TGM4-001] |  | 50 to 75
VCWNPFNNTF (also called VCWNPFNNTF) [RNF183-001] |  | 50 to 75
IYIIMQSCW (also called IYIIMQSCW) [FLT3-011] |  | 50 to 75
GTGKLFWVF (also called GTGKLFWVF) [BTL-003] | 10 to 20 | 
YQVAKGMEF (also called YQVAKGMEF) [FLT3-014] | 10 to 20 | 

Binder | peptide exchange yield (HLA-A*24 [1]) [%] | peptide exchange yield (HLA-A*24 [2]) [%]
KDQPQVPCVF (also called KDQPQVPCVF) [NAT1-001] | 10 to 20 | 
ISMSATEFLL (also called ISMSATEFLL) [CYP1A1-001] |  | 50 to 75
ISFSDTVNVW (also called ISFSDTVNVW) [ITIH6-001] | 10 to 20 | 
VYFVQYKIM (also called VYFVQYKIM) [IL22RA2-001] | 10 to 20 | 
FYIVTRPLAF (also called FYIVTRPLAF) [SUCN-002] |  | 50 to 75
VQADAKLLF (also called VQADAKLLF) [C20-002] | 10 to 20 | 
LIFALALAAF (also called LIFALALAAF) [GAST-001] | 10 to 20 | 
SYQEAIQQL (also called SYQEAIQQL) [NEFH-003] |  | 50 to 75
YFDENIQKF (also called YFDENIQKF) [HEPHL-006] |  | 50 to 75
RRLWAYVTI (also called RRLWAYVTI) [ITIH6-002] | 10 to 20 | 
FLPALYSLL (also called FLPALYSLL) [CXCR3-001] |  | 50 to 75
QHMLPFWTDL (also called QHMLPFWTDL) [NLRP2-009] |  | 50 to 75
KQVIGIHTF (also called KQVIGIHTF) [SFMBT1-002] | 10 to 20 | 
RLGEFVLLF (also called RLGEFVLLF) [TGM6-001] |  | 50 to 75
EAYSYPPATI (also called EAYSYPPATI) [HMCN1-006] |  | 50 to 75
RVHANPLLI (also called RVHANPLLI) [APOB-081] | 10 to 20 | 
IWAERIMF (also called IWAERIMF) [TDRD1-001] |  | 50 to 75
ATATLHLIF (also called ATATLHLIF) [PCD-007] | 10 to 20 | 
RYKMLIPF (also called RYKMLIPF) [NLRP2-010] |  | 50 to 75
IYPHGVTFSP (also called IYPHGVTFSP) [F5-004] | 10 to 20 | 
IYPDSIQEL (also called IYPDSIQEL) [LOC-019] |  | 50 to 75
VYEHNHVSL (also called VYEHNHVSL) [BTBD16-006] |  | 50 to 75

Binder | peptide exchange yield (HLA-A*24 [1]) [%] | peptide exchange yield (HLA-A*24 [2]) [%]
SLWREVVTF (also called SLWREVVTF) [CEP250-004] |  | 50 to 75
IYFNHRCF (also called IYFNHRCF) [SFMBT1-001] |  | 50 to 75
RILTEFELL (also called RILTEFELL) [TRIM31-001] |  | 50 to 75
LHLYCLNTF (also called LHLYCLNTF) [PGR-003] |  | 50 to 75
KVWSDVTPLTF (also called KVWSDVTPLTF) [MMP11-023] |  | 50 to 75
YIPMSVMLF (also called YIPMSVMLF) [HTR7-002] |  | 50 to 75
LFQRVSSVSF (also called LFQRVSSVSF) [HMCN1-010] |  | 50 to 75
VTPKMLISF (also called VTPKMLISF) [OR5H8P-001] | 10 to 20 | 
MMALWSLLHL (also called MMALWSLLHL) [ZAC-001] | 10 to 20 | 
TDWSPPPVEF (also called TDWSPPPVEF) [FAM178B-001] |  | 50 to 75
VYSSFVFNL (also called VYSSFVFNL) [NLRP4-006] |  | 50 to 75
EYSLPVLTF (also called EYSLPVLTF) [PTP-037] |  | 50 to 75
VGGNVTSNF (also called VGGNVTSNF) [CT45-004] |  | 50 to 75
VGGNVTSSF (also called VGGNVTSSF) [CT45-005] |  | 50 to 75
VYSSFVFNLF (also called VYSSFVFNLF) [NLRP4-007] |  | 50 to 75
QHAWLPLTI (also called QHAWLPLTI) [TCL1A-004] | 10 to 20 | 
SHSDHEFLF (also called SHSDHEFLF) [ARSH-001] | 10 to 20 | 
IHGIKFHYF (also called IHGIKFHYF) [NMUR2-004] |  | 50 to 75
KLRALSILF (also called KLRALSILF) [PTP-039] | 10 to 20 | 
RIFTARLYF (also called RIFTARLYF) [AICD-001] |  | 50 to 75
KQHAWLPLTI (also called KQHAWLPLTI) [TCL1A-003] | 10 to 20 | 
FPPTPPLF (also called FPPTPPLF) [BCL11A-002] | 10 to 20 | 
